These results are taken from patent US20230406885A1, “CYCLIC PEPTIDES FOR TRAPPING INTERLEUKIN-1 BETA” (MERCK SHARP & DOHME LLC, priority 2022, published 2023).

B1: SEQ ID NO: 201 (Example No. 201) (peptide)
peptide: cyclo([Phe(4-(4-Ac-piperazinyl))]W[Phe(4-COOH)]G[Pro(trans-4-NH2)][1Nal(3S-Me)]D[dNMeA]G[Bip(4'-COOH)][4Pal]G[dDab][hCha])
SMILES: CC(=O)N1CCN(c2ccc(C[C@@H]3NC(=O)[C@H](CCC4CCCCC4)NC(=O)[C@@H](CCN)NC(=O)CNC(=O)[C@H](Cc4ccncc4)NC(=O)[C@H](Cc4ccc(-c5ccc(C(=O)O)cc5)cc4)NC(=O)CNC(=O)[C@@H](C)N(C)C(=O)[C@H](CC(=O)O)NC(=O)[C@H]([C@@H](C)c4cccc5ccccc45)NC(=O)[C@@H]4C[C@@H](N)CN4C(=O)CNC(=O)[C@H](Cc4ccc(C(=O)O)cc4)NC(=O)[C@H](Cc4c[nH]c5ccccc45)NC3=O)cc2)CC1
B2: SEQ ID NO: 200 (Example No. 200) (peptide)
peptide: cyclo([Phe(4-(4-Ac-piperazinyl))]W[Phe(4-COOH)]G[Pro(trans-4-NH2)][1Nal(3S-Me)]D[dNMeA]G[Bip(4'-COOH)][4Pal]G[dDab][aMeNle])
SMILES: CCCC[C@]1(C)NC(=O)[C@@H](CCN)NC(=O)CNC(=O)[C@H](Cc2ccncc2)NC(=O)[C@H](Cc2ccc(-c3ccc(C(=O)O)cc3)cc2)NC(=O)CNC(=O)[C@@H](C)N(C)C(=O)[C@H](CC(=O)O)NC(=O)[C@H]([C@@H](C)c2cccc3ccccc23)NC(=O)[C@@H]2C[C@@H](N)CN2C(=O)CNC(=O)[C@H](Cc2ccc(C(=O)O)cc2)NC(=O)[C@H](Cc2c[nH]c3ccccc23)NC(=O)[C@H](Cc2ccc(N3CCN(C(C)=O)CC3)cc2)NC1=O
B3: SEQ ID NO: 195 (Example No. 195) (peptide)
peptide: cyclo([Phe(4-(trans-4-COOH-cHex))]W[Phe(4-COOH)]G[Pro(trans-4-NH2)][1Nal(3S-Me)]D[dNMeA]G[Bip(4'-COOH)][4Pal]G[dDab][αMeNle])
SMILES: CCCC[C@]1(C)NC(=O)[C@@H](CCN)NC(=O)CNC(=O)[C@H](Cc2ccncc2)NC(=O)[C@H](Cc2ccc(-c3ccc(C(=O)O)cc3)cc2)NC(=O)CNC(=O)[C@@H](C)N(C)C(=O)[C@H](CC(=O)O)NC(=O)[C@H]([C@@H](C)c2cccc3ccccc23)NC(=O)[C@@H]2C[C@@H](N)CN2C(=O)CNC(=O)[C@H](Cc2ccc(C(=O)O)cc2)NC(=O)[C@H](Cc2c[nH]c3ccccc23)NC(=O)[C@H](Cc2ccc([C@H]3CC[C@H](C(=O)O)CC3)cc2)NC1=O
B4: SEQ ID NO: 196 (Example No. 196) (peptide)
peptide: cyclo([Phe(4-(trans-4-COOH-cHex))]W[Phe(4-COOH)]G[Pro(trans-4-NH2)][1Nal(3S-Me)]D[dNMeA]G[Bip(4'-COOH)][4Pal]G[dDab][hCha])
SMILES: C[C@@H]1C(=O)NCC(=O)N[C@@H](Cc2ccc(-c3ccc(C(=O)O)cc3)cc2)C(=O)N[C@@H](Cc2ccncc2)C(=O)NCC(=O)N[C@H](CCN)C(=O)N[C@@H](CCC2CCCCC2)C(=O)N[C@@H](Cc2ccc([C@H]3CC[C@H](C(=O)O)CC3)cc2)C(=O)N[C@@H](Cc2c[nH]c3ccccc23)C(=O)N[C@@H](Cc2ccc(C(=O)O)cc2)C(=O)NCC(=O)N2C[C@H](N)C[C@H]2C(=O)N[C@@H]([C@@H](C)c2cccc3ccccc23)C(=O)N[C@@H](CC(=O)O)C(=O)N1C
B5: SEQ ID NO: 198 (Example No. 198) (peptide)
peptide: cyclo([Phe(4-(4-Ac-piperazinyl))]W[Phe(4-COOH)]G[Pro(trans-4-NH2)][1Nal(3S-Me)]D[dNMeA]G[Bip(4'-COOH)][Ala(indolin-1-yl)]G[dDab][hTyr])
SMILES: CC(=O)N1CCN(c2ccc(C[C@@H]3NC(=O)[C@H](CCc4ccc(O)cc4)NC(=O)[C@@H](CCN)NC(=O)CNC(=O)[C@H](CN4CCc5ccccc54)NC(=O)[C@H](Cc4ccc(-c5ccc(C(=O)O)cc5)cc4)NC(=O)CNC(=O)[C@@H](C)N(C)C(=O)[C@H](CC(=O)O)NC(=O)[C@H]([C@@H](C)c4cccc5ccccc45)NC(=O)[C@@H]4C[C@@H](N)CN4C(=O)CNC(=O)[C@H](Cc4ccc(C(=O)O)cc4)NC(=O)[C@H](Cc4c[nH]c5ccccc45)NC3=O)cc2)CC1
B6: SEQ ID NO: 197 (Example No. 197) (peptide)
peptide: cyclo([Phe(4-(trans-4-COOH-cHex))]W[Phe(4-COOH)]G[Pro(trans-4-NH2)][1Nal(3S-Me)]D[dNMeA]G[Bip(4'-COOH)][4Pal]G[dDab][Nle])
SMILES: CCCC[C@@H]1NC(=O)[C@@H](CCN)NC(=O)CNC(=O)[C@H](Cc2ccncc2)NC(=O)[C@H](Cc2ccc(-c3ccc(C(=O)O)cc3)cc2)NC(=O)CNC(=O)[C@@H](C)N(C)C(=O)[C@H](CC(=O)O)NC(=O)[C@H]([C@@H](C)c2cccc3ccccc23)NC(=O)[C@@H]2C[C@@H](N)CN2C(=O)CNC(=O)[C@H](Cc2ccc(C(=O)O)cc2)NC(=O)[C@H](Cc2c[nH]c3ccccc23)NC(=O)[C@H](Cc2ccc([C@H]3CC[C@H](C(=O)O)CC3)cc2)NC1=O
B7: SEQ ID NO: 202 (Example No. 202) (peptide)
peptide: cyclo([Phe(4-(4-Ac-piperazinyl))]W[Phe(4-COOH)]G[Pro(trans-4-NH2)][1Nal(3S-Me)]D[dNMeA]G[Bip(4'-COOH)][Cha]G[dDab][hTyr])
SMILES: CC(=O)N1CCN(c2ccc(C[C@@H]3NC(=O)[C@H](CCc4ccc(O)cc4)NC(=O)[C@@H](CCN)NC(=O)CNC(=O)[C@H](CC4CCCCC4)NC(=O)[C@H](Cc4ccc(-c5ccc(C(=O)O)cc5)cc4)NC(=O)CNC(=O)[C@@H](C)N(C)C(=O)[C@H](CC(=O)O)NC(=O)[C@H]([C@@H](C)c4cccc5ccccc45)NC(=O)[C@@H]4C[C@@H](N)CN4C(=O)CNC(=O)[C@H](Cc4ccc(C(=O)O)cc4)NC(=O)[C@H](Cc4c[nH]c5ccccc45)NC3=O)cc2)CC1
B8: SEQ ID NO: 203 (Example No. 203) (peptide)
peptide: cyclo([Phe(4-(4-Ac-piperazinyl))]W[Phe(4-COOH)]G[Pro(trans-4-NH2)][1Nal(3S-Me)]D[dNMeA]G[Bip(4'-COOH)][Dab]L[dA][hCha])
SMILES: CC(=O)N1CCN(c2ccc(C[C@@H]3NC(=O)[C@H](CCC4CCCCC4)NC(=O)[C@@H](C)NC(=O)[C@H](CC(C)C)NC(=O)[C@H](CCN)NC(=O)[C@H](Cc4ccc(-c5ccc(C(=O)O)cc5)cc4)NC(=O)CNC(=O)[C@@H](C)N(C)C(=O)[C@H](CC(=O)O)NC(=O)[C@H]([C@@H](C)c4cccc5ccccc45)NC(=O)[C@@H]4C[C@@H](N)CN4C(=O)CNC(=O)[C@H](Cc4ccc(C(=O)O)cc4)NC(=O)[C@H](Cc4c[nH]c5ccccc45)NC3=O)cc2)CC1

*1 amine or outer side, *2 acyl side, *3 side chain or, on linkers, in order; H or OH if unused. Primed or numbered codes have the meaning given here. [ ]: non-standard residue; d: D form. aMeNle = (S)-2-amino-2-methylhexanoic acid (alpha-methyl-norleucine), CCCC[C@](C)(N[*:1])C(=O)[*:2]; Phe(4-(trans-4-COOH-cHex)) = N[C@@H](Cc1ccc([C@H]2CC[C@H](C(=O)O)CC2)cc1)C(=O)O; Phe(4-(4-Ac-piperazinyl)) = CC(=O)N1CCN(c2ccc(C[C@H](N)C(=O)O)cc2)CC1; Pro(trans-4-NH2) = O=C([C@@H]1C[C@@H](N[*:3])CN1[*:1])[*:2]; Bip(4'-COOH) = N[C@@H](Cc1ccc(-c2ccc(C(=O)O)cc2)cc1)C(=O)O; 1Nal(3S-Me) = C[C@@H](c1cccc2ccccc12)[C@H](N)C(=O)O; Ala(indolin-1-yl) = N[C@@H](CN1CCc2ccccc21)C(=O)O; Phe(4-COOH) = N[C@@H](Cc1ccc(C(=O)O)cc1)C(=O)O; αMeNle = CCCC[C@](C)(N[*:1])C(=O)[*:2]; hTyr = N[C@@H](CCc1ccc(O)cc1)C(=O)O; hCha = N[C@@H](CCC1CCCCC1)C(=O)O; 4Pal = N[C@@H](Cc1ccncc1)C(=O)O; Cha = N[C@@H](CC1CCCCC1)C(=O)O; dαMeDab′ = not defined here; dDab = NCC[C@@H](N)C(=O)O; Nle = CCCC[C@H](N)C(=O)O; dNMeA = CN[C@H](C)C(=O)O; Dab = NCC[C@H](N)C(=O)O

The target in this assay is Recombinant human IL-1β (BioLegend 579404) (human, UniProt P01584 117-269). In words: cell-based or functional assay.
Take B1: the “MRC5 IC50” value was determined as 0.03 nM.

In the case of cyclo([Phe(4-(4-Ac-piperazinyl))]W[Phe(4-COOH)]G[Pro(trans-4-NH2)][1Nal(3S-Me)]D[dNMeA]G[Bip(4'-COOH)][4Pal]G[dαMeDab′][hCha]) [SEQ ID NO: 199 (Example No. 199)], the “MRC5 IC50” value stood at 0.024 nM.

On to B2, for which the “MRC5 IC50” value turned out to be 0.034 nM.

In the case of B3, the “MRC5 IC50” value was 0.022 nM.

Take B4: the “MRC5 IC50” value is 0.03 nM.

For B5, the “MRC5 IC50” value worked out at 0.021 nM.

Turning to B6, the “MRC5 IC50” value is 0.024 nM.

As for B7, the “MRC5 IC50” value turned out to be 0.029 nM.

For the molecule B8, the “MRC5 IC50” value was found to be 0.012 nM.
